In paper PMC9088182 (Cell reports, 2022):

Molecular target: the molecule itself
Assay: cryo-EM structure

B1: TRPV5 Thr709Asp phosphomimetic mutant (rabbit) (natural protein)
chain: MGACPPKAKGPWAQLQKLLISWPVGEQDWEQYRDRVNMLQQERIRDSPLLQAAKENDLRLLKILLLNQSCDFQQRGAVGETALHVAALYDNLEAATLLMEAAPELAKEPALCEPFVGQTALHIAVMNQNLNLVRALLARGASVSARATGAAFRRSPHNLIYYGEHPLSFAACVGSEEIVRLLIEHGADIRAQDSLGNTVLHILILQPNKTFACQMYNLLLSYDEHSDHLQSLELVPNHQGLTPFKLAGVEGNTVMFQHLMQKRKHVQWTCGPLTSTLYDLTEIDSWGEELSFLELVVSSKKREARQILEQTPVKELVSFKWKKYGRPYFCVLASLYILYMICFTTCCIYRPLKLRDDNRTDPRDITILQQKLLQEAYVTHQDNIRLVGELVTVTGAVIILLLEIPDIFRVGASRYFGQTILGGPFHVIIITYASLVLLTMVMRLTNMNGEVVPLSFALVLGWCSVMYFARGFQMLGPFTIMIQKMIFGDLMRFCWLMAVVILGFASAFHITFQTEDPNNLGEFSDYPTALFSTFELFLTIIDGPANYSVDLPFMYCITYAAFAIIATLLMLNLFIAMMGDTHWRVAQERDELWRAQVVATTVMLERKMPRFLWPRSGICGYEYGLGDRWFLRVENHHDQNPLRVLRYVEAFKCSDKEDGQEQLSEKRPSTVESGMLSRASVAFQTPSLSRTTSQSSNSHRGWEILRRNDLGHLNLGLDLGEGDGEEVYHF
B1: binds.
